Assay results taken from US20050058639A1 (AstraZeneca / MedImmune, published 2005).
Blank lines part the entries; values can stand above or below the binder they belong to.

Columns and labels:
[1] = biological target: T1, recombinant mouse JE/MCP-1 (mouse, UniProt P10148 24-148); experiment: ELISA, coated antigen
T1 construct: also called rmJE/MCP-1
Summary of the method: (§1)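 Plates coated overnight at 4° C with MCP-1, MCP-2, MCP-3, MCP-4, RANTES, GRO-alpha, MIP-1 alpha, eotaxin, rat MCP-1 or mouse JE (2 μg/ml, carbonate buffer pH 9.6), blocked with BSA. Hybridoma supernatants bound 2 hours at room temperature; TMB colour developed about 10 minutes.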

human RANTES = biological target: T2, human RANTES (human, UniProt P13501 24-91); experiment: ELISA, coated antigen
T2 construct: also called hRANTES
T2 sequence (looked up): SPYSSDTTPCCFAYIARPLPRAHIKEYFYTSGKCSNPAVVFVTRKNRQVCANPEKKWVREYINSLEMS
Summary of the method: as §1

human MIP-1-alpha = biological target: T3, human MIP-1-alpha (human, UniProt P10147 24-92, limits assumed); experiment: ELISA, coated antigen
T3 construct: also called hMIP-1-alpha
T3 sequence (looked up): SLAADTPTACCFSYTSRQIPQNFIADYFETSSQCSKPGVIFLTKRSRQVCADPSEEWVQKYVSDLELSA
Summary of the method: as §1

human GRO/MGSA = biological target: T4, human GRO/MGSA (human, UniProt P09341 35-107); experiment: ELISA, coated antigen
T4 construct: also called hGRO/MGSA; GRO-alpha
T4 sequence (looked up): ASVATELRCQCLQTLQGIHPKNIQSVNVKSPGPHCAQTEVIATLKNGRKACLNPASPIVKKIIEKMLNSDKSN
Summary of the method: as §1

recombinant human MCP-4 [2] = biological target: T5, recombinant human MCP-4 (human, UniProt Q99616 24-98, limits assumed); experiment: ELISA, coated antigen
T5 construct: also called rhMCP-4
Summary of the method: as §1

human eotaxin = biological target: T6, human eotaxin (human, UniProt P51671 24-97); experiment: ELISA, coated antigen
T6 construct: also called hEotaxin
Summary of the method: as §1

rat MCP-1 = rat MCP-1 (rat, UniProt P14844 24-148); experiment: ELISA, coated antigen
Summary of the method: as §1

recombinant human MCP-2 [3] = biological target: T7, recombinant human MCP-2 (human, UniProt P80075 24-99); experiment: ELISA, coated antigen
T7 construct: also called rhMCP-2
T7 sequence (looked up): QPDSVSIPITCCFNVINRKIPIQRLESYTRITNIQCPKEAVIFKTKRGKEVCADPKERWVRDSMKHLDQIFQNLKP
Summary of the method: as §1

recombinant human MCP-3 [4] = biological target: T8, recombinant human MCP-3 (human, UniProt P80098 24-99); experiment: ELISA, coated antigen
T8 construct: also called rhMCP-3
Summary of the method: as §1

[5] = biological target: T9, human monocyte chemo-attractant protein-1 (MCP-1) (human, UniProt P13500 24-99); experiment: ELISA, coated antigen; ELISA, purified clone 1:50 on coated hMCP-1 (2 ug/mL), cross-reactivity panel
T9 construct: 76-residue recombinant protein from E. coli, bought (PeproTech); also called hMCP-1(MCAF); human MCP-1
Procedure: Determining cross-reactivity of anti-MCP-1 antibodies with other chemokines. ELISA plates (Fisher Cat. No. 12-565-136) were coated with 50 μl/well of MCP-1, MCP-2, MCP-3, MCP-4, RANTES, GRO-alpha, MIP-1 alpha, eotaxin, rat MCP-1 and mouse JE (2 μg/ml) in coating buffer (0.1 M carbonate buffer, pH 9.6, NaHCO₃ 8.4 g/L, then incubated at 4° C. overnight. After incubation, the plates were washed with washing buffer (0.05% Tween 20 in PBS) three times. 200 μL/well blocking buffer (0.5% BSA, 0.1% Tween 20, 0.01% Thimerosal in 1×PBS) were added and the plates incubated at room temperature for 1 hour. After incubation, the plates were washed with washing buffer three times. 50 μL/well of hybridoma supernatants, and positive and negative controls (positive control was anti-MCP-1 antibody purchased from R&D Sciences, and negative control was an antibody to Keyhole Limpet Hemocyanin produced at Abgenix) were added and the plates incubated at room temperature for 2 hours. After incubation, the plates were washed three times with washing buffer. […] After incubation, the plates were washed three times with washing buffer and 100 μL/well of TMB (BioFX Lab. Cat. #TMSK-0 100-01) was added and the plates allowed to develop for about 10 minutes.

[6] = biological target: T9, human monocyte chemo-attractant …; experiment: ELISA, hybridoma supernatant on coated MCP-1; ELISA, hybridoma supernatant on plate-coated non-reduced MCP-1 (2 ug/mL)
Procedure: Selection of candidate antibodies for ELISA. After 14 days of culture, hybridoma supernatants were screened for MCP-1-specific monoclonal antibodies. The ELISA plates (Fisher, Cat. No. 12-565-136) were coated with 50 μl/well of MCP-1 (2 μg/mL) in Coating Buffer (0.1 M Carbonate Buffer, pH 9.6, NaHCO₃8.4 g/L), then incubated at 4° C. overnight. After incubation, the plates were washed with Washing Buffer (0.05% Tween 20 in PBS) three times. 200 μl/well Blocking Buffer (0.5% BSA, 0.1% Tween 20, 0.01% Thimerosal in 1× PBS) were added and the plates incubated at room temperature for 1 hour. After incubation, the plates were washed with Washing Buffer three times. 50 μL/well of hybridoma supernatants, and positive and negative controls were added and the plates incubated at room temperature for 2 hours.
The positive control used throughout was XMG2 MCP-1 Group 1, footpad N160-7 and the negative control was XMG2 KLH Group 1, footpad L627-6. After incubation, the plates were washed three times with Washing Buffer. […] In the secondary screen, three sets of samples (positives in first screening) were screened, one set for hIgG detection, one set for hKappa detection, and one set for hlambda detection. After incubation, the plates were washed three times with Washing Buffer. 100 μL/well of TMB (BioFX Lab. Cat. #TMSK-0100-01) were added and the plates allowed to develop for about 10 minutes (until negative control wells barely started to show color), then 50 μL/well stop solution (TMB Stop Solution (BioFX Lab. Cat. #STPR-0100-01) were added and the plates read on an ELISA plate reader at wavelength 450 nm. The OD readings from the positive wells are presented in Table 9.

recombinant human MCP-3 [7] = biological target: T8, recombinant human MCP-3; experiment: cell-based or functional assay
[8] = biological target: T9, human monocyte chemo-attractant …; experiment: Biacore 2000, mAb immobilized, antigen injected; Biacore, 25 C, native MCP-1 injected over immobilized mAb 3.11.2 (250 RU)
Procedure: (§2) The interaction analysis was performed at 25° C. using two CM5 chips docked in Biacore 2000 optical biosensors. Individual flow cells on each chip were activated with a 7-minute injection of NHS/EDC, carbohydrazide was coupled through the NHS ester using a 7-minute injection, and the residual activated groups were blocked with a 7-minute injection of ethanolamine. […] The oxidized antibody was desalted into 10 mM sodium acetate, pH 5.0, to couple the antibody to the carbohydrazide-modified surface. […] The mAb surfaces were stabilized by reducing the hydrazone bond with 0.1 M sodium cyanoborohydride. The antigen/antibody interaction was tested by injecting duplicate antigen samples diluted in running buffer (10 mM HEPES, 150 mM NaCl, 0.005% surfactant, 200 μg/mL BSA, pH 7.4), in a 300-fold concentration range. The surfaces were regenerated with a 12-second pulse of 15 mM H₃PO₄.

recombinant human MCP-4 [9] = biological target: T5, recombinant human MCP-4; experiment: Biacore 2000, mAb immobilized, antigen injected
Procedure: as §2

recombinant human MCP-2 [10] = biological target: T7, recombinant human MCP-2; experiment: Biacore 2000, mAb immobilized, antigen injected
Procedure: as §2

recombinant human MCP-3 [11] = biological target: T8, recombinant human MCP-3; experiment: Biacore 2000, mAb immobilized, antigen injected
Procedure: as §2

[12] = biological target: T9, human monocyte chemo-attractant …; experiment: cell-based or functional assay
[13] = biological target: T9, human monocyte chemo-attractant …; experiment: Biacore, mAb immobilized, MCP-1 injected; Biacore, 25 C, native MCP-1 injected over immobilized mAb
Procedure: Determination of anti-MCP-1 antibody affinity using Biacore analysis. The antibody/MCP-1 interaction analysis was performed at 25° C. using two CM5 chips docked in Biacore 3000 optical biosensors. Individual flow cells on each chip were activated with a 7-minute injection of NHS/EDC, carbohydrazide was coupled through the NHS ester using a 7-minute injection, and the residual activated groups were blocked with a 7-minute injection of ethanolamine. The monosaccharide residues of each antibody were oxidized using 1 mM sodium metaperiodate in 100 mM sodium acetate, pH 5.5 at 4° C. for 30 minutes. The oxidized antibody was desalted into 100 mM sodium acetate, pH 5.0, to couple the antibody to the carbohydrazide-modified surface. The mAb surfaces were stabilized by reducing the hydrazone bond with 0.1 M sodium cyanoborohydride. The antigen/antibody interaction was tested by injecting 0, 0.049, 0.15, 0.4, 1.3, 4 and 12 nM of MCP-1 (Peprotech, N.J.) in running buffer (10 mM HEPES, 150 mM NaCl, 0.005% surfactant, 200 μg/ml BSA, pH 7.4). The surfaces were regenerated with a 12-second pulse of 15 mM H₃PO₄. The antigen/antibody interaction was tested by injecting duplicate antigen samples diluted in running buffer (10 mM HEPES, […], 0.005% surfactant, 200 μg/mL BSA, pH 7.4), in a 300-fold concentration range. The surfaces were regenerated with a 12-second pulse of 15 mM H₃PO₄. To determine the kinetics of each interaction, the data sets were fit globally to a 1:1 interaction model that included a parameter for mass transport.

T8 sequence (P80098 24-99 limits assumed): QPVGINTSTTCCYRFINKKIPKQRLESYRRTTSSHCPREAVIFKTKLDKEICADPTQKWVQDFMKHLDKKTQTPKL
T9 sequence (P13500 24-99): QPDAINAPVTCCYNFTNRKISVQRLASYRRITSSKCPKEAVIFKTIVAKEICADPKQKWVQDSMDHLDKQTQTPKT
Sequence of rat MCP-1 (P14844 24-148 limits assumed): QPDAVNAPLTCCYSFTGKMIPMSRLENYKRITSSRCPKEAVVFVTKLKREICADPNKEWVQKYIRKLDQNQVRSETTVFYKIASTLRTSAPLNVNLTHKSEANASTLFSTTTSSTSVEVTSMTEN

ELISA OD [1]: 0.063 OD450 | ELISA OD (human RANTES): 0.064 OD450 | ELISA OD (human MIP-1-alpha): 0.053 OD450 | ELISA OD (human GRO/MGSA): 0.054 OD450 | ELISA OD (recombinant human MCP-4 [2]): 0.981 OD450 | ELISA OD (human eotaxin): 0.339 OD450 | ELISA OD (rat MCP-1): 0.057 OD450 | ELISA OD (recombinant human MCP-2 [3]): 0.336 OD450 | ELISA OD (recombinant human MCP-3 [4]): 1.32 OD450 | ELISA OD [5]: 0.803 OD450 | ELISA OD-MCP-1 [6]: 4 OD450 | IC50, inhibition of MCP-3-induced migration of THP-1 cells (chemotaxis assay, MCP3 at 0.166 nM) (recombinant human MCP-3 [7]): 0.139 nM | Kd [8]: 0.0033 nM | koff [8]: 0.001 s⁻¹ | kon [8]: 3e+08 M⁻¹ s⁻¹ | Kd (recombinant human MCP-4 [9]): 0.0037 nM | koff (recombinant human MCP-4 [9]): 0.00055 s⁻¹ | kon (recombinant human MCP-4 [9]): 1.5e+08 M⁻¹ s⁻¹ | Kd (recombinant human MCP-2 [10]): 0.046 nM | koff (recombinant human MCP-2 [10]): 0.012 s⁻¹ | kon (recombinant human MCP-2 [10]): 2.6e+08 M⁻¹ s⁻¹ | Kd (recombinant human MCP-3 [11]): 0.049 nM | koff (recombinant human MCP-3 [11]): 0.0074 s⁻¹ | kon (recombinant human MCP-3 [11]): 1.5e+08 M⁻¹ s⁻¹ | IC50 Ca++ Flux [12]: 0.092 µg/mL | IC50 Chemotaxis [12]: 0.33 µg/mL
B1: anti-MCP-1 mAb 3.11.1 (antibody, human IgG4, kappa, V domains shown)
VH: QVQLQESGPGLVKPSQTLSLTCTVSGGSISSGGNYWNWIRQHPGKGLEWIGYIYYSGNTYYNPSLKSRITISIDTSKNQFSLTLSSVTAADTAVYYCARDGGDDAFDIWGQGTMVTVSS
VL: DIQMTQSPSSLSASVGDRVTITCQASQDISNYLNWYQQKPGKAPKLLIYDASNLETGVPSRFSGSGSGTDFTFTINSLQPEDIATYYCQEYNNLPYSFGQGTKLEIKR

ELISA OD [1]: 0.042 OD450 | ELISA OD (human RANTES): 0.046 OD450 | ELISA OD (human MIP-1-alpha): 0.046 OD450 | ELISA OD (human GRO/MGSA): 0.046 OD450 | ELISA OD (recombinant human MCP-4 [2]): 0.044 OD450 | ELISA OD (human eotaxin): 0.042 OD450 | ELISA OD (rat MCP-1): 0.062 OD450 | ELISA OD (recombinant human MCP-2 [3]): 0.042 OD450 | ELISA OD (recombinant human MCP-3 [4]): 0.046 OD450 | ELISA OD [5]: 0.275 OD450 | ELISA OD-MCP-1 [6]: 3.6 OD450 | Kd [13]: 0.0034 nM | IC50 Ca++ Flux [12]: 0.27 µg/mL | IC50 Chemotaxis [12]: 0.7 µg/mL
B2: anti-MCP-1 mAb 3.8 (antibody, V domains shown)
VH: QVQLVQSGAEVKKPGASVKVSCKVSGYTLTELSMHWVRQAPGKGLEWMGGFDPENGETIHAQKFQGRVIMTEDTSTDTAYMELSSLRSEDTAVYYCATDQGGYSGYFDCWGQGTLVTVSS
VL: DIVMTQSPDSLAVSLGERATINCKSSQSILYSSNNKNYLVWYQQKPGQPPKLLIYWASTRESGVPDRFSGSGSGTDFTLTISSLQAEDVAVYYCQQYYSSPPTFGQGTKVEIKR
notes: also called 3.8.1

ELISA OD [1]: 0.05 OD450 | ELISA OD (human RANTES): 0.045 OD450 | ELISA OD (human MIP-1-alpha): 0.042 OD450 | ELISA OD (human GRO/MGSA): 0.045 OD450 | ELISA OD (recombinant human MCP-4 [2]): 0.043 OD450 | ELISA OD (human eotaxin): 0.042 OD450 | ELISA OD (rat MCP-1): 0.047 OD450 | ELISA OD (recombinant human MCP-2 [3]): 0.043 OD450 | ELISA OD (recombinant human MCP-3 [4]): 0.045 OD450 | ELISA OD [5]: 0.272 OD450 | ELISA OD-MCP-1 [6]: 4 OD450 | Kd [13]: 0.45 nM | IC50 Ca++ Flux [12]: 1.8 µg/mL | IC50 Chemotaxis [12]: 2.6 µg/mL
B3: anti-MCP-1 mAb 5.3.1 (antibody, V domains shown)
VH: QVQLVQSGAEVKKPGASVKVSCKVSGYTLSELSMHWVRQAPGKGLEWMGGFDPEDGETIYAQKFQGRVTMTEDTSTDTAYMELSSLRSEDTAVFYCATKREYSGYFDYWGQGTLVTVSS
VL: DIVMTQSPDSLAVSLGERATINCKSSQSVLYSSNSKNYLAWFQQKPGQPPKLLIYWASTRESGVPDRFSGSGSGTDFTLTISRLQAEDVAVYSCQQYFITPWTFGQGTKVELKR
